# Assay results published in patent US20210147541A1.
# Molecular target: monkey CADM3 (cynomolgus monkey)
# Test: flow cytometry, 10 ug/mL, monkey CADM3/Expi293F vs parent Expi293F cells
# Chain of monkey CADM3 (cynomolgus monkey) (Q8N126 25-398 S206N limits assumed, form in doubt): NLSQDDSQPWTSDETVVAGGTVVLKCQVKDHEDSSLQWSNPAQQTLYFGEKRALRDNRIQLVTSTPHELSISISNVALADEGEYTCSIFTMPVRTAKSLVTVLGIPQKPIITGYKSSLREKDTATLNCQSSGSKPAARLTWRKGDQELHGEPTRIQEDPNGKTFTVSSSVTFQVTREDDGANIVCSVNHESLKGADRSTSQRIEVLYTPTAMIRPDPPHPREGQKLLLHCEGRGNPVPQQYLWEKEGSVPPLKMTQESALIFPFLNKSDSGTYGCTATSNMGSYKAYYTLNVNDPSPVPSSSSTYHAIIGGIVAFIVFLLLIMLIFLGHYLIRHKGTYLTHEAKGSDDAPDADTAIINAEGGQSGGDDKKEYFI
row,Mean fluorescence intensity ratio,Binder
1,35.3,"iCADM3_3R1-L11 VHH-hG4PE(R409K) (Fc fusion, not shown: a dimerising Fc or GST) QVQLVESGGGLVQAGGSLRLSCAASGSIFSFNAMGWYRQAPGKQRGLVAVITSGGYTNYADSVKGRFTITRDNAKNTVYLQMNSLKPEDTAVYYCNAEGVYSDYVIMNYWGQGTQVTVSS"
2,36.5,"iCADM3_3R1-L10 VHH-hG4PE(R409K) (Fc fusion, not shown: a dimerising Fc or GST) QVQLVESGGGLVQAGGSLRLSCAASGSIFSIHAMGWYRQAPGKQRELVATVTSGGSTNYADSVKGRFTISRDNAKNTVYLQMNSLKPEDTAVYYCNAETPYYSSTYYTNYWGQGTQVTVSS"

# The remaining lines, values behind:
row,Binder,Mean fluorescence intensity ratio
1,"iCADM3_3R1-L5 VHH-hG4PE(R409K) (Fc fusion, not shown: a dimerising Fc or GST) QVQLVESGGGLVQAGGSLRLSCAASGSIVSVNAMGWYRQAPGKQRELVATITSGGSTNYADSAKGRFTISRDNAKNTMYLQMNSLKPEDTAVYYCNGEFWSRRDTRPPGVVNYWGQGTQVTVSS",26.6
2,"anti-AVM antibody (antibody, V domains shown) VH: EVQLVESGGGLVQPGRSLKLSCAASGFTFSNYAMAWVRRAPTKGLEWVASISNGGGNTYYRDSVKGRFTISRDDAKNTLYLQMDSLRSEDTATYYCARHGNYIYYGSFFDYWGQGVMVTVSS VL: QFVLSQPNSVSTNLGSTVKLSCKRSTGNIGSNYVSWYQQHEGRSPTTMIYRDDKRPDGVPDRFSGSIDRSSDSALLTINNVQTEDEADYFCQSYSSGINIFGGGTKLTVLG",1.02
3,CADM3102 scFv-hG4PE (Fc fusion) VH: QMQLVQSGAEVKKPGSSVKVSCKASGGTFSSYAISWVRQAPGQGLEWMGGIIPMSGTANYAQKFQGRVTITADESTSTAYMELSSLRSEDTAVYYCARVEESGWYDHYHGMDVWGQGTTVTVSS VL: DVVMTQSPLSLPVTPGEPASISCTSSQSLLYSNGFNYLDWYLQKPGQSPQLLIYLGSNRASGVPDRFSGSGSGTDFTLKISRVEAEDVGVYYCMQALTTHPTFGGGTKVDIK,51.5
4,"iCADM3_3R1-L8 VHH-hG4PE(R409K) (Fc fusion, not shown: a dimerising Fc or GST) QVQLVESGGGLVQPGGSLRLSCAASGRTFSNYARGWFRQAPGKEREFVAAIDYSGGSTNYADSAKGRFTISRDNAKNTVYLQMNSLKPGDTAVYYCAAPASRRPSWDADGYDYWGQGTQVTVSS",6.91
5,CADM301 scFv-hG4PE (Fc fusion) VH: QVQLVQSGAEVRRPGTSVKVSCKASGYSFTSYDINWVRLATGQGLEWMGWMNPNTGDTGSPQKFQDRVTMTRDISTGTAYLELRGLKSEDTAIYYCARGFLVTAYTAEFFPHWGQGTLVTVSS VL: SYVLTQPPSVSVAPGKTARLTCGGNNIGSKSVHWYQQRPGQAPVLVINYDSDRPSGIPERFSGSNSENTATLTISRVEAGDEADYYCQVWDSGSDHVVFGGGTQLIIL,5.72
